Results: paper PMC6957486

Columns and labels:
[1] = biological target: photosystem I (PSI) core from H. hongdechloris grown under far-red light, one monomer of the trimer (Halomicronema hongdechloris); assay: cryo-EM structure; single particle analysis of PSI trimers purified whole from thylakoid membranes; 50 mM MES (pH 6.0), 5 mM CaCl2, 0.2-2.0% sucrose, 0.01% β-DDM; grids washed without sucrose and β-DDM; 2.35 Å (white PSI) and 2.41 Å (far-red PSI)
[2] = biological target: photosystem I (PSI) core from H. hongdechloris grown under white light, one monomer of the trimer (Halomicronema hongdechloris); assay: as above

| stoichiometry N [1] | stoichiometry N [2] | Substance |
| --- | --- | --- |
| 3 | – | photosystem I (PSI) core from H. hongdechloris grown under far-red light, one monomer of the trimer (from UniProt A0A1Z3HPE3 1-81; A0A1Z3HHI7 1-142; A0A1Z3HI16 1-68; A0A1Z3HR36 1-96) (complex) |
| – | 3 | photosystem I (PSI) core from H. hongdechloris grown under white light, one monomer of the trimer (from UniProt A0A1Z3HPE3 1-81; A0A1Z3HHI7 1-142; A0A1Z3HI16 1-68) (complex) |
